In the test the target is endogenous αIIbβ3 integrin receptor of activated platelets (human (endogenous in platelets)) (UniProt P08514).

This is an account of results in article PMC2778132.

Consider RGDS [RGDS peptide], for which the reduction of adhesion of TRAP-activated platelets to fibrinogen-coated wells (1 µM peptide, compared to N-PTB^D66E) was found to be 7%.
